Source: PMC12171143, “The Arabidopsis E3 ubiquitin ligase PUB13 synergistically interacts with BON1 to regulate plant flowering and immunity” (Frontiers in Plant Science, 2025)

Biological target: T1, GST-PUB13 (Arabidopsis thaliana, UniProt Q9SNC6 1-660)
T1 construct: also called PUB13-GST; source: purified fusion protein from pGEX-6p-1; E. coli BL21 is named for the PUB13 construct in pGEX-6P-1 of the ubiquitination assay
T1 sequence (looked up): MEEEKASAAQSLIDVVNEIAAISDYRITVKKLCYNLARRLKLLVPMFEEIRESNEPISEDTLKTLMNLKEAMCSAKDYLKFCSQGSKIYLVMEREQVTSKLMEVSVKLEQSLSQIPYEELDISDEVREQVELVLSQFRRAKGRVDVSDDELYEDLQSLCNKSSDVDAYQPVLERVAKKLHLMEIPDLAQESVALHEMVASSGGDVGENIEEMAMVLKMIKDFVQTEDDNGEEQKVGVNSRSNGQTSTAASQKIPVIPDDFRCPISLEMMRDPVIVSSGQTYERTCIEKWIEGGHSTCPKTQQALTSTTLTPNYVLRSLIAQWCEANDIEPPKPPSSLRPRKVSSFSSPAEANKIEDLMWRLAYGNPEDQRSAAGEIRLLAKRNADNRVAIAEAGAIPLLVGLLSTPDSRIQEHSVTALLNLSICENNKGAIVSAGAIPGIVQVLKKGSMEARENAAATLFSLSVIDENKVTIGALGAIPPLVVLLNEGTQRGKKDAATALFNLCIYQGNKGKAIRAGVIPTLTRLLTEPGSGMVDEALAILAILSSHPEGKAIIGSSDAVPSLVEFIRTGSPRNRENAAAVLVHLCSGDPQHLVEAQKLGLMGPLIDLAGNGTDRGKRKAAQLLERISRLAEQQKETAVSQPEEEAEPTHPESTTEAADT
Assay: pull-down; purified fusion proteins mixed, glutathione Sepharose beads 4 h at 4°C, five washes with 1x TBST, eluate blotted with anti-MBP
Conditions: both partners purified

B1: MBP-BON1 (natural protein, Arabidopsis thaliana, UniProt Q941L3 1-578, looked up)
chain: MGNCCSDVASGAGATAGVGGSGSSAALGATNDALDYYLKSKGFNGLFSQIELSFSASNLRDRDVLSKSDPMVVVYQKEKDATLSEVFRSEVVLNSLAPKWIKKFIVAYHFETVQTLVFRVYDVDTKFQNSREEMLKLDEQQFLGEATCALSEIITKSTRTSTLELKRKDGFAPQAQPHHGKLIIHAEESLASKISTEIVFRCSNLESKDLFSKSDPFLVVSKIVEHGTPIPVSKTEVRKNDLNPIWKPVFLSVQQVGSKDSPVIIECSDFNSNGKHSLIGKVQKSLSDLEKLHLAGQGINFSLPTGAGQNKVLKSQLFVDKFTETVHHTFLEYLASGFELNFMVAIDFTASNGNPRLPDSLHYIDPSGRLNAYQRAIMDVGEVLQFYDSDKRFPAWGFGARPIDAPVSHCFNLNGSSSYSEVDGIQGIMTSYTSALFNVSLAGPTLFGPVINAAAMIASASLAQGSRKYYVLLIITDGVITDLQETKDALVSASDLPLSILIVGVGGADFKEMEILDADKGERLESSSGRLASRDIVQFVALRDVQYGEISVVQALLAELPSQFLTYMRIRNMKPIPP
notes: source: purified fusion protein from pMAL-c4x
  binding result: binds
